# Experimental data from patent publication US20060052286A1, “Factor VII conjugates for selectively treating neovascularization disorders” (Yale University, priority 2004, published 2006).
# Legend:
# [1] = test system: choroidal neovascularization (CNV) lesions; assay: Targeted photodynamic therapy of laser-induced CNV lesions in rats (fluorescein angiography); format: in vivo, Norway-Brown rats
# Method: CNV lesions were induced by laser photocoagulation of the retina in both eyes of Norway-Brown rats. Group 1: one eye received an intravitreal injection of 10 ul verteporfin conjugated to targeting molecule, and the other eye was used as a control. One hour later some of the lesions were treated with 690 nm laser light, while the other lesions were not irradiated. Group 2: one eye received iv. injection of 0.5 to 1 mg/m^2 verteporfin conjugated with targeting molecule. 15, 30 or 60 minutes later some of the lesions were treated with 690 nm laser light, while the other lesions were not irradiated. The lesions were examined by fluorescein angiography 1, 7 and 14 days later to assess the efficacy of targeted photodynamic therapy. In the case of intravitreal treatment with the same dosage, the effects of targeted photodynamic therapy lasted at least seven days. While there is no effect of PDT in the case of intravitreal injection of free verteporfin, the effects of targeted photodynamic therapy last even longer than 14 days, and the dosage of verteporfin in targeted photodynamic therapy is only 16% as compared to regular PDT verteporfin.
# CNV lesions were induced by laser photocoagulation of the retina in both eyes of Norway-Brown rats. Choroidal neovascularization was induced by photocoagulating the posterior pole of rats with argon green laser using a slit lamp and a fundus contact lens to deliver 200-700 mW power for 0.1 second to a 50 μm spot. The power was adjusted to produce a blister or small hemorrhage. If no bleeding was observed, an additional laser-induced lesion was produced next to the first spot. Neovascular membranes usually develop within 2 weeks.
# After 4 weeks, FVII-verteporfin conjugate (fVIIPD) at doses of 0.5 or 1 mg/m^2 was injected intravenously into the tail vein of the rats. Some of the CNV lesions were irradiated with 689 nm laser for 83 seconds at 15, 30 or 60 minutes after intravenous injection, while the other lesions were not irradiated (no light controls). Control rats were intravenously injected with Verteporfin (6.0 mg/m2) and laser irradiation was done 15 minutes later. The lesions were examined by fundus photographs and fluorescein angiography 1, 7 and 14 days later to assess the efficacy of ITPT. Choroidal veovascular membranes were treated by intravitreal injection of Verteporfin attached to targeting molecules that bind selectively to the endothelial cells of pathologic vessels. The photosensitizer was activated with an opal laser. A similar experiment was performed by intravitreal injection of fVII-targeted verteporfin.
# [2] = biological target: T1, Tissue Factor on the tumor cells (human breast cancer cells) (Homo sapiens, UniProt P13726); assay: Binding to human breast cancer cells expressing TF by flow cytometry; conditions: conjugated compared with non-conjugated molecule
# T1 construct: Human Tumor Cells Expressing TF; endogenous in cells
# Method: mfVIIP was conjugated to verteporfin using the procedure described above. The binding activity of the conjugate to human breast cancer cells was tested by flow cytometry
# T1 sequence (P13726 33-295): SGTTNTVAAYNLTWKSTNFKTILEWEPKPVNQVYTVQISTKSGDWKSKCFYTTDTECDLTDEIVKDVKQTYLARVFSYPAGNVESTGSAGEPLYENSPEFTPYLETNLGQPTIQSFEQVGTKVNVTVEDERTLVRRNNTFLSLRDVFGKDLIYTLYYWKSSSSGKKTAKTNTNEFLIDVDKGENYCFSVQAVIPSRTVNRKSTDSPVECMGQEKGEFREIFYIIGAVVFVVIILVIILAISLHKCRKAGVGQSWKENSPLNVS
Molecule,"effect of PDT ([1]; intravitreal injection, same dosage)",binding activity to human breast cancer cells [2],"blood vessel leakage ([1]; intravitreal injection followed by laser activation, at 7 days)","duration of effects of targeted photodynamic therapy ([1]; intravitreal treatment, 690 nm laser light)","duration of effects of targeted photodynamic therapy ([1]; route not stated in the sentence (apparently iv 0.5 to 1 mg/m^2), verteporfin dosage only 16% of regular PDT)"
verteporfin [reference compound],no effect,–,–,–,–
"mfVIIPD: verteporfin conjugated via EDC to mfVIIP protein (mouse factor VII with K341A mutation) (conjugate, UniProt P70375 1-446, looked up, variant K341A, verteporfin conjugate; S-peptide and His6 tags) MVPQAHGLLLLCFLLQLQGPLGTAVFITQEEAHGVLHRQRRANSLLEELWPGSLERECNEEQCSFEEAREIFKSPERTKQFWIVYSDGDQCASNPCQNGGTCQDHLKSYVCFCLLDFEGRNCEKSKNEQLICANENGDCDQYCRDHVGTKRTCSCHEDYTLQPDEVSCKPKVEYPCGRIPVVEKRNSSSRQGRIVGGNVCPKGECPWQAVLKINGLLLCGAVLLDARWIVTAAHCFDNIRYWGNITVVMGEHDFSEKDGDEQVRRVTQVIMPDKYIRGKINHDIALLRLHRPVTFTDYVVPLCLPEKSFSENTLARIRFSRVSGWGQLLDRGATALELMSIEVPRLMTQDCLEHAKHSSNTPKITENMFCAGYMDGTKDACAGDSGGPHATHYHGTWYLTGVVSWGEGCAAIGHIGVYTRVSQYIDWLVRHMDSKLQVGVFRLPLL",–,identical,completely stopped blood vessel leakage,at least seven,> 14 days
"mfVIIP: mouse factor VII with K341A mutation, ribonuclease S-peptide and 6 Histidines, produced in CHO cells (protein, UniProt P70375 1-446, looked up, variant K341A, S-peptide and His6 tags, mouse factor VII with K341A mutation, ribonuclease S-peptide and 6 Histidines, produced in CHO cells) MVPQAHGLLLLCFLLQLQGPLGTAVFITQEEAHGVLHRQRRANSLLEELWPGSLERECNEEQCSFEEAREIFKSPERTKQFWIVYSDGDQCASNPCQNGGTCQDHLKSYVCFCLLDFEGRNCEKSKNEQLICANENGDCDQYCRDHVGTKRTCSCHEDYTLQPDEVSCKPKVEYPCGRIPVVEKRNSSSRQGRIVGGNVCPKGECPWQAVLKINGLLLCGAVLLDARWIVTAAHCFDNIRYWGNITVVMGEHDFSEKDGDEQVRRVTQVIMPDKYIRGKINHDIALLRLHRPVTFTDYVVPLCLPEKSFSENTLARIRFSRVSGWGQLLDRGATALELMSIEVPRLMTQDCLEHAKHSSNTPKITENMFCAGYMDGTKDACAGDSGGPHATHYHGTWYLTGVVSWGEGCAAIGHIGVYTRVSQYIDWLVRHMDSKLQVGVFRLPLL",–,identical,–,–,–
